Key:
[1] = target: T1, SARS-CoV-2 Nsp13 helicase (SARS-CoV-2, UniProt P0DTD1 5325-5925); assay: MST; conditions: both partners purified
T1 construct: also called Nsp13 helicase of SARS-CoV-2

[2] = target: T1, SARS-CoV-2 Nsp13 helicase; conditions: both partners purified

Binder | IC50 [1] [µM] | Kd [2] [µM]
full-length DDX5 (flDDX5) (enzyme, human, UniProt P17844 1-614, looked up, human DEAD-box helicase DDX5, native full-length gene in pET30a, 614 residues (1-614); also called full-length DDX5 (1–614); unlabeled flDDX5) MSGYSSDRDRGRDRGFGAPRFGGSRAGPLSGKKFGNPGEKLVKKKWNLDELPKFEKNFYQEHPDLARRTAQEVETYRRSKEITVRGHNCPKPVLNFYEANFPANVMDVIARQNFTEPTAIQAQGWPVALSGLDMVGVAQTGSGKTLSYLLPAIVHINHQPFLERGDGPICLVLAPTRELAQQVQQVAAEYCRACRLKSTCIYGGAPKGPQIRDLERGVEICIATPGRLIDFLECGKTNLRRTTYLVLDEADRMLDMGFEPQIRKIVDQIRPDRQTLMWSATWPKEVRQLAEDFLKDYIHINIGALELSANHNILQIVDVCHDVEKDEKLIRLMEEIMSEKENKTIVFVETKRRCDELTRKMRRDGWPAMGIHGDKSQQERDWVLNEFKHGKAPILIATDVASRGLDVEDVKFVINYDYPNSSEDYIHRIGRTARSTKTGTAYTFFTPNNIKQVSDLISVLREANQAINPKLLQLVEDRGSGRSRGRGGMKDDRRDRYSAGKRGGFNTFRDRENYDRGYSSLLKRDFGAKTQNGVYSAANYTNGSFGSNFVSAGIQTSFRTGNPTGTYQNGYDSTQQYGSNVPNMHNGMNQQAYAYPATAAAPMIGYPMPTGYSQ | 0.325 | –
RecA1 domain of DDX5 (1–303) (domain or fragment, human, UniProt P17844 1-303, looked up, human DDX5, RecA1 domain with the N-terminal region, residues 1-303; probably as DDX5ΔC (pETM-13, His-tag), surmised; source: E. coli (cloned from the gene optimized for E. coli expression), purified) MSGYSSDRDRGRDRGFGAPRFGGSRAGPLSGKKFGNPGEKLVKKKWNLDELPKFEKNFYQEHPDLARRTAQEVETYRRSKEITVRGHNCPKPVLNFYEANFPANVMDVIARQNFTEPTAIQAQGWPVALSGLDMVGVAQTGSGKTLSYLLPAIVHINHQPFLERGDGPICLVLAPTRELAQQVQQVAAEYCRACRLKSTCIYGGAPKGPQIRDLERGVEICIATPGRLIDFLECGKTNLRRTTYLVLDEADRMLDMGFEPQIRKIVDQIRPDRQTLMWSATWPKEVRQLAEDFLKDYIHINIG | 16.2 | –
labeled RecA1 domain of DDX5 (domain or fragment, human, UniProt P17844 1-303, looked up, fluorescent label (dye and site not stated), human DDX5, RecA1 domain with the N-terminal region, residues 1-303; also called fluorescent RecA1; source: E. coli (cloned from the gene optimized for E. coli expression), purified, then labeled) MSGYSSDRDRGRDRGFGAPRFGGSRAGPLSGKKFGNPGEKLVKKKWNLDELPKFEKNFYQEHPDLARRTAQEVETYRRSKEITVRGHNCPKPVLNFYEANFPANVMDVIARQNFTEPTAIQAQGWPVALSGLDMVGVAQTGSGKTLSYLLPAIVHINHQPFLERGDGPICLVLAPTRELAQQVQQVAAEYCRACRLKSTCIYGGAPKGPQIRDLERGVEICIATPGRLIDFLECGKTNLRRTTYLVLDEADRMLDMGFEPQIRKIVDQIRPDRQTLMWSATWPKEVRQLAEDFLKDYIHINIG | – | 9.1 ± 1.3

Reference: PMC12355267, “Human Helicase DDX5 is Hijacked by SARS-CoV‑2 Nsp13 Helicase to Enhance RNA Unwinding” (ACS Omega, 2025)
